Data on 1 substance can be found in patent US20200323902.

Holding throughout (assay): cell_activity
Data set [1] has as its system T1, TcBuster V377T/E469K V377T,E469K (Tribolium castaneum).
T1 sequence: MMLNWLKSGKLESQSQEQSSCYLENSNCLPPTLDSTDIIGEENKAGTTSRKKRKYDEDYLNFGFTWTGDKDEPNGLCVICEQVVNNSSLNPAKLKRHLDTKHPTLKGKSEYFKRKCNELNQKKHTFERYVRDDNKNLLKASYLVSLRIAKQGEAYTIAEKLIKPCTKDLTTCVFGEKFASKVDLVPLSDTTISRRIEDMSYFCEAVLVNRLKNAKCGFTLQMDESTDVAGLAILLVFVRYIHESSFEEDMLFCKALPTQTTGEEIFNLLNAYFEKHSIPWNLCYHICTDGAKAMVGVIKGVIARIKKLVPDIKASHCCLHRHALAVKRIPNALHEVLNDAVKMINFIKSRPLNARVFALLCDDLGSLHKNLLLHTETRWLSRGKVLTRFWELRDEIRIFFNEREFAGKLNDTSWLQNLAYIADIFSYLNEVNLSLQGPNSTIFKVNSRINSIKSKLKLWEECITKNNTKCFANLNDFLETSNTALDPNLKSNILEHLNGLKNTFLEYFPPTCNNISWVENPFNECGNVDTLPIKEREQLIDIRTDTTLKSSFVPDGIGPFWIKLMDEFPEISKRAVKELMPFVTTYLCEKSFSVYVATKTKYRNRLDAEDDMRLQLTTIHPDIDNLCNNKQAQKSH
The following applies: primary human CD3+ T cells, mean; nearly 2-fold over WT at day 14; unit inferred from figure legend.

For data set [2], the system named is T2, TcBuster D189A/V377T/E469K (Tribolium castaneum).
T2 sequence: T1 sequence with D189A
Conditions: primary human CD3+ T cells, mean; nearly 2-fold over WT at day 14; unit inferred from figure legend.

Data set [3] concerns Sleeping Beauty transposase SB11 (synthetic). Conditions: primary human CD3+ T cells, mean; unit inferred from figure legend.

Numbering of substitutions follows the chain as printed.

In the case of “mini-circle transposon with TcBuster and Sleeping Beauty IR/DRs, GFP cargo”, the results for the activity in data set [1], in data set [2] and in data set [3] were 20.2 % GFP+ cells, 24.1 % GFP+ cells and 8.4 % GFP+ cells, respectively.
